Source: patent US20100055715A1 (published 2010)

Molecular target: T1, Mycobacterium proteasomal ATPase (Mpa), untagged recombinant (Mycobacterium tuberculosis, UniProt P9WQN5 1-609)
T1 sequence: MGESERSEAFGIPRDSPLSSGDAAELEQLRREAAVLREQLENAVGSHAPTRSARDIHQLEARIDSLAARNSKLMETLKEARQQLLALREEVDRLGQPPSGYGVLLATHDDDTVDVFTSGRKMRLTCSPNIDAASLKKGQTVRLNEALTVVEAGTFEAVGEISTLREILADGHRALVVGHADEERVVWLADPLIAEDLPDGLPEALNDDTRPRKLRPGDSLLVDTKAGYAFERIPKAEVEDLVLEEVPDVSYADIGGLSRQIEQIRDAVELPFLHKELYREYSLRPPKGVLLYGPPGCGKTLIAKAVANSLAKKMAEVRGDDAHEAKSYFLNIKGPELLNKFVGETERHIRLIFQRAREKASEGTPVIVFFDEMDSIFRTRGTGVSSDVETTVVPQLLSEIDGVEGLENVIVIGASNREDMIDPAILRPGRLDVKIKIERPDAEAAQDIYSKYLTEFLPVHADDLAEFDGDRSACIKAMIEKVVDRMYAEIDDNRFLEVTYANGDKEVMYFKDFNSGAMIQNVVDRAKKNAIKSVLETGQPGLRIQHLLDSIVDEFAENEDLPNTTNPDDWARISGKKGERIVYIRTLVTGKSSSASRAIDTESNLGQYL
Assay: Ni-NTA agarose pull-down, Coomassie gel and anti-Mpa immunoblot

B1: [change] (other)
chain: MAQEQTKRGGGGGDDDDIAGSTAAGQERREKLTEETDDLLDEIDDVLEENAEDFVRAYVQKGGQ
  binding result: binds
